Results as given in patent publication US20180244762A1.

Experiments:
[1] = biological target: recombinant human PDGF-BB (human) (UniProt P01127); assay: cell-based or functional assay
[2] = biological target: recombinant human PDGF-BB (human) (UniProt P01127); assay: competitive ELISA: binder preincubated with 0.2 nM rhPDGF-BB, competitor immobilized PDGFR/Fc
[3] = biological target: recombinant human PDGF-BB (human) (UniProt P01127); assay: optical biosensor (Proteon XPR36 / Biacore 2000), binder amine-coupled, rhPDGF-BB injected, 25 C

recombinant human PDGF-BB (human), sequence (P01127 82-190): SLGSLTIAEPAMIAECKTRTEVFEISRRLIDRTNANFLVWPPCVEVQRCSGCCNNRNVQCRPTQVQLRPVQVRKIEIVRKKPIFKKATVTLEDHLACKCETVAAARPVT

Substance: reference anti-PDGF-BB antibody (R&D Systems, Catalog # AB-220-NA)
- Inhibition of PDGF induced proliferation of HPVPs, IC50 [1]: 5.4 nM
- IC50 [2]: 0.066 nM
- Kd [3]: 0.107 nM
